Laboratory results reported in article PMC7246916, “14-3-3 Proteins and Other Candidates form Protein-Protein Interactions with the Cytosolic C-terminal End of SOS1 Affecting Its Transport Activity” (International Journal of Molecular Sciences, 2020).

T1: recombinant (10xHis)-labelled At14-3-3ω (Arabidopsis thaliana, UniProt Q01525 1-259)
T1 construct: 14-3-3 isoform omega, Arabidopsis thaliana; Construct details are in the Suppl; Methods; also called His-tagged 14-3-3ω protein; source: host in the Suppl; Methods
T1 sequence (looked up): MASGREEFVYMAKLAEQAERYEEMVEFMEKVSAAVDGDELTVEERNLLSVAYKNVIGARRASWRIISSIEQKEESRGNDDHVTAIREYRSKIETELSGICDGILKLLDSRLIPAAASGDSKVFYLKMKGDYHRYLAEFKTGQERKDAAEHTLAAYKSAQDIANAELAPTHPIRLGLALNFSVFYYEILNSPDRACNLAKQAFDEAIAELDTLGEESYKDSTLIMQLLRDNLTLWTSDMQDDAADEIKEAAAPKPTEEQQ


Target: T1, recombinant (10xHis)-labelled At14-3-3ω
Assay: peptide or protein array; 15-mer synthetic peptides of SOS1 from amino acid 446, overlapping by 12, spotted on a cellulose membrane; incubated with recombinant 10xHis-14-3-3ω; anti-His antibody, HRP-coupled anti-mouse antibody, ECL
Conditions: both partners purified

Row | binding result | Binder
1 | binds | TRQNTMVESSDEEDE (SOS1 (NHX7), Arabidopsis thaliana; source: synthetic peptide, immobilized on a cellulose membrane) [SOS1 C-term 15-mer peptide, spot H13]
2 | binds | NTMVESSDEEDEDEG (SOS1 (NHX7), Arabidopsis thaliana; source: synthetic peptide, immobilized on a cellulose membrane) [SOS1 C-term 15-mer peptide, spot H14]
